One test addresses HLA-B*07:02. Briefly: IEDB peptide-MHC binding, purified MHC/competitive/radioactivity; filed as Kd, often an IC50 or EC50 that approximates it; ≥ and ≤ were set here for values at or beyond the usual limits of such assays.
The target in a further test is HLA-B*35:01. Described as above.
The next test concerns the target HLA-B*51:01. The test is described as above.
The next test addresses HLA-B*54:01. The test is described as above.
In a further test the target is HLA-B*53:01. The test is described as above.
The target of the next test is HLA-A*02:06. The description is as above.
Another test deals with HLA-A*02:17. Described as above.
Test [1] has as its target HLA-A*02:01. The description is as above.
A further test concerns the target HLA-A*68:02. The description is as above.
The target of a further test is HLA-A*01:01. The test is described as above. Particulars: source organism: Dengue virus 2 Jamaica/1409/1983.
For test [2], the target named is HLA-A*02:01. The test is described as follows: IEDB peptide-MHC binding, purified MHC/direct/fluorescence; filed as Kd, often an IC50 or EC50 that approximates it; ≥ and ≤ were set here for values at or beyond the usual limits of such assays. Particulars: source organism: Rift Valley fever virus.
The next test has as its target HLA-A*02:12. Described as above. Particulars: source organism: Rift Valley fever virus.
The target in a further test is HLA-A*69:01. The test is described as above. Particulars: source organism: Rift Valley fever virus.
Test [3] concerns the target HLA-B*15:01. The test is described as above. Particulars: source organism: Rift Valley fever virus.
The target of a further test is HLA-A*02:03. The test is described as follows: IEDB peptide-MHC binding, purified MHC/competitive/radioactivity; filed as Kd, often an IC50 or EC50 that approximates it; ≥ and ≤ were set here for values at or beyond the usual limits of such assays. To be noted: source organism: Dengue virus 3 Martinique/1243/1999.
A further test has as its target HLA-B*08:01. The description is as above. To be noted: source organism: Dengue virus 1 Brazil/97-11/1997.
In test [4] the target is HLA-B*15:01. The description is as above. To be noted: source organism: Dengue virus 1 Brazil/97-11/1997.
Where [5] appears, read: source organism: Mammarenavirus lassaense.
The mark [6] stands for this setting: source organism: Dengue virus 4 Philippines/H241/1956.
The mark [7] stands for this setting: source organism: Dengue virus 2 Jamaica/1409/1983.
The mark [8] stands for this setting: source organism: Dengue virus 3 Martinique/1243/1999.
Setting [9] is: source organism: Dengue virus 3 Sri Lanka/1266/2000.
Setting [10] is: source organism: SARS coronavirus Tor2.
Setting [11] is: source organism: Vaccinia virus WR.
Setting [12] is: source organism: Dengue virus 1 Singapore/S275/1990.
Setting [13] is: source organism: Mammarenavirus guanaritoense.

These results are taken from the Immune Epitope Database (IEDB).

With TPVEIVVDM, the Kd with HLA-B*07:02 (setting [5]) was 16700 nM; with HLA-B*35:01 (setting [5]), 4.6 nM; with HLA-B*51:01 (setting [5]), 9820 nM; with HLA-B*54:01 (setting [5]), at least 78100 nM; with HLA-B*53:01 (setting [5]), 158 nM.
On to TSMAMTCIAV, for which the Kd with HLA-A*02:06 (setting [6]) worked out at 9.2 nM; with HLA-A*02:17 (setting [6]) it was 62.5 nM; in the test with HLA-A*02:01 [1] (setting [6]), 12.3 nM; with HLA-A*68:02 (setting [6]) it was 1.66 nM.
On to LTAALLLLV, for which the Kd was 3.73 nM with HLA-A*02:06 (setting [7]); at least 41700 nM with HLA-A*02:17 (setting [7]); 5760 nM in the test with HLA-A*02:01 [1] (setting [7]); at least 42900 nM with HLA-A*01:01; 5.36 nM in the test with HLA-A*68:02 (setting [7]).
Regarding YLKEACNHA, the Kd with HLA-A*02:01 [2] is 243 nM; with HLA-A*02:12, 52 nM; with HLA-A*69:01 it was 473 nM; with HLA-B*15:01 [3] it was 652 nM.
For the sequence MIAGVFFTFV, the dissociation constant Kd is 1.02 nM with HLA-A*02:06 (setting [8]); 83 nM in the test with HLA-A*02:17 (setting [9]); 12.6 nM with HLA-A*02:01 [1] (setting [9]); 2.85 nM in the test with HLA-A*68:02 (setting [8]); at most 0.1 nM with HLA-A*02:03.
Turning to SPLFLIVAAL, the Kd with HLA-B*07:02 (setting [10]) was 248 nM; in the test with HLA-B*35:01 (setting [10]), 3330 nM; with HLA-B*51:01 (setting [10]), 970 nM; in the test with HLA-B*54:01 (setting [10]), 949 nM; in the test with HLA-B*53:01 (setting [10]), 1040 nM.
With DPRLVAEHRF, the Kd with HLA-B*07:02 (setting [11]) was at least 21400 nM; with HLA-B*35:01 (setting [11]), 11700 nM; in the test with HLA-B*51:01 (setting [11]), at least 69600 nM; with HLA-B*54:01 (setting [11]), at least 69900 nM; with HLA-B*53:01 (setting [11]), 1210 nM.
Regarding APNAKEEIL, the Kd is 71.2 nM in the test with HLA-B*07:02 (setting [10]); 19200 nM with HLA-B*35:01 (setting [10]); 2650 nM with HLA-B*51:01 (setting [10]); at least 23300 nM with HLA-B*54:01 (setting [10]); 18500 nM in the test with HLA-B*53:01 (setting [10]).
Regarding CPFLFLIVL, the Kd in the test with HLA-B*07:02 (setting [5]) is at least 77400 nM; with HLA-B*35:01 (setting [5]) it was 414 nM; in the test with HLA-B*51:01 (setting [5]), at least 54700 nM; with HLA-B*54:01 (setting [5]) it was 1520 nM; with HLA-B*53:01 (setting [5]) it was 14100 nM.
Take VPDIKLDAVL: the Kd with HLA-B*07:02 (setting [11]) was 4.94 nM; with HLA-B*35:01 (setting [11]), 140 nM; in the test with HLA-B*51:01 (setting [11]), 335 nM; with HLA-B*54:01 (setting [11]), 1620 nM; with HLA-B*53:01 (setting [11]), 134 nM.
The like results for DPDHYKDYAF were, in that order, at least 69600 nM, 894 nM, at least 69600 nM, 17300 nM and 3440 nM.
As to KPEVRIPVDL, the dissociation constant (Kd) was 235 nM in the test with HLA-B*07:02 (setting [11]); at least 69900 nM with HLA-B*35:01 (setting [11]); at least 69600 nM in the test with HLA-B*51:01 (setting [11]); 14300 nM in the test with HLA-B*54:01 (setting [11]); at least 42400 nM with HLA-B*53:01 (setting [11]).
Take DPTFQLLNMI: the Kd was at least 69600 nM with HLA-B*07:02 (setting [11]); at least 69900 nM in the test with HLA-B*35:01 (setting [11]); 4990 nM with HLA-B*51:01 (setting [11]); at least 27100 nM in the test with HLA-B*54:01 (setting [11]); 12600 nM with HLA-B*53:01 (setting [11]).
Take TAAAWYLWEV: the Kd with HLA-A*02:06 (setting [7]) was found to be 1.28 nM; in the test with HLA-A*02:17 (setting [7]), 1020 nM; with HLA-A*02:01 [1] (setting [7]), 10.3 nM; with HLA-A*68:02 (setting [7]), 4.09 nM.
Regarding FPAIFSAEVL, the Kd in the test with HLA-B*07:02 (setting [5]) was 1380 nM; with HLA-B*35:01 (setting [5]) it was 55.7 nM; with HLA-B*51:01 (setting [5]), 9910 nM; with HLA-B*54:01 (setting [5]), 523 nM; with HLA-B*53:01 (setting [5]), 332 nM.
As to LLMLVTPSM, the Kd with HLA-B*08:01 worked out at 1080 nM; in the test with HLA-A*02:17 (setting [12]) it was 24.3 nM; in the test with HLA-A*02:01 [1] (setting [12]), 7.86 nM; with HLA-B*15:01 [4], 2.26 nM.
Take NPLVITTSV: the Kd was found to be 1330 nM with HLA-B*07:02 (setting [13]); 5530 nM with HLA-B*35:01 (setting [13]); 381 nM with HLA-B*51:01 (setting [13]); 79.8 nM with HLA-B*54:01 (setting [13]); 14200 nM with HLA-B*53:01 (setting [13]).
Consider FPYVMGDVEL, for which the Kd stood at 930 nM with HLA-B*07:02 (setting [5]); 11.1 nM with HLA-B*35:01 (setting [5]); 304 nM with HLA-B*51:01 (setting [5]); 487 nM with HLA-B*54:01 (setting [5]); 46.9 nM in the test with HLA-B*53:01 (setting [5]).
Turning to LPSLIKTILA, the Kd with HLA-B*07:02 (setting [11]) stood at 1520 nM; in the test with HLA-B*35:01 (setting [11]), 2230 nM; in the test with HLA-B*51:01 (setting [11]), 11000 nM; in the test with HLA-B*54:01 (setting [11]) it was 1.54 nM; with HLA-B*53:01 (setting [11]), 1960 nM.
